Measured values published in the RNAGym collection of RNA variant scans (doi:10.7554/elife.80360).

B1: Hairpin Ribozyme (parent)
chain: GUCCUCUUUCACGUGCGCGUGAAAGAGAGAAGUGAACCAGAGAAACACACGUUGUGGUAUAUUACCUGGUA

Variants of: B1
Experiment: self-cleavage, relative activity (ratio to wild type); higher = more cleavage; co-transcriptional

Q: Which self-cleavage does the source give for GUCCUCCUUCCCGUGCGCGUGAAAGAGAGAAGUGAACCAGAGAAACACACGUUGUGGUAUAUUACCUGGUA [U7C A11C] here?
A: 0.525

Q: For GUCCUCAUUCACGUGCGCGUGAAAGAGAGAAGUGAACCAGAGAAACACACGUUGUGGUAUAGUACCUGGUA [U7A U62G], which self-cleavage is on record?
A: 0.0626

Q: Which self-cleavage does the source give for GUCCUCAUUCACGUGCGCGUGAAAGAGAGAAGUGAACCAGAGAAACACACGUUGUAGUAUAUUACCUGGUA [U7A G56A] here?
A: 0.182

Q: With GUCCUCAUUCACGUGCGCGUGAAAGAGAGAAGUGAACCAGAGAAACACACAUUGUGGUAUAUUACCUGGUA [U7A G51A] as the variant, how does the self-cleavage read?
A: 0.977

Q: With GUCCUCCUUCACGUGCGCGUGUAAGAGAGAAGUGAACCAGAGAAACACACGUUGUGGUAUAUUACCUGGUA [U7C A22U] as the variant, how does the self-cleavage read?
A: 0.642

Q: With GUCCUCAUUCACGUGCGCGUGAAAGAGAGAAGUGAACCAGAGAAACACACGUGGUGGUAUAUUACCUGGUA [U7A U53G] as the variant, how does the self-cleavage read?
A: 0.688

Q: For GUCCUCCUUCACGUGCGCGUGAAAGAGAGAAGUGACCCAGAGAAACACACGUUGUGGUAUAUUACCUGGUA [U7C A36C], which self-cleavage is on record?
A: 0.679

Q: Which self-cleavage does the source give for GUCCUCAUUCACGUGCGCGUGAAAGAGAGAAGUGAACCAGAGAAACACACGUUGUGGUAUAUUACCUGAUA [U7A G69A] here?
A: 0.315

Q: For GUCCUCAUUCACGUGCGCGUGAAAGAGAGAAGUGAACCAGAGAAACACACGUUGUGGUAUAUUACCUGCUA [U7A G69C], which self-cleavage is on record?
A: 0.196

Q: With GUCCUCAGUCACGUGCGCGUGAAAGAGAGAAGUGAACCAGAGAAACACACGUUGUGGUAUAUUACCUGGUA [U7A U8G] as the variant, how does the self-cleavage read?
A: 0.925

Q: Which self-cleavage does the source give for GUCCUCCUUCACGUGCGCGUGAAAGGGAGAAGUGAACCAGAGAAACACACGUUGUGGUAUAUUACCUGGUA [U7C A26G] here?
A: 0.667

Q: With GUCCUCCUUCACGUGCGCGUGAAAGCGAGAAGUGAACCAGAGAAACACACGUUGUGGUAUAUUACCUGGUA [U7C A26C] as the variant, how does the self-cleavage read?
A: 0.275

Q: With GUCCUCAUUCACGUGCGCGUGAAAGAGAGAACUGAACCAGAGAAACACACGUUGUGGUAUAUUACCUGGUA [U7A G32C] as the variant, how does the self-cleavage read?
A: 0.143

Q: Which self-cleavage does the source give for GUCCUCCUUCACGUGCGCGUGAAAGAGAGACGUGAACCAGAGAAACACACGUUGUGGUAUAUUACCUGGUA [U7C A31C] here?
A: 0.112

Q: With GUCCUCCUUCACGUGCGCGUGAAGGAGAGAAGUGAACCAGAGAAACACACGUUGUGGUAUAUUACCUGGUA [U7C A24G] as the variant, how does the self-cleavage read?
A: 0.628

Q: For GUCCUCAUUCACGUGCGCGUGAAAGAGAGAAGUGAACCAGAGAAACACACGUUGUGGUAAAUUACCUGGUA [U7A U60A], which self-cleavage is on record?
A: 0.893

Q: For GUCCUCAUUCACGUGCGCGUGAAAGAGAGAAGUGAACCAGAGAAACACACGAUGUGGUAUAUUACCUGGUA [U7A U52A], which self-cleavage is on record?
A: 0.992

Q: With GUCCUCAUCCACGUGCGCGUGAAAGAGAGAAGUGAACCAGAGAAACACACGUUGUGGUAUAUUACCUGGUA [U7A U9C] as the variant, how does the self-cleavage read?
A: 0.714

Q: For GUCCUCAUACACGUGCGCGUGAAAGAGAGAAGUGAACCAGAGAAACACACGUUGUGGUAUAUUACCUGGUA [U7A U9A], which self-cleavage is on record?
A: 0.666

Q: With GUCCUCAUGCACGUGCGCGUGAAAGAGAGAAGUGAACCAGAGAAACACACGUUGUGGUAUAUUACCUGGUA [U7A U9G] as the variant, how does the self-cleavage read?
A: 0.579

Q: Which self-cleavage does the source give for GUCCUCAUUCACGUGCGCGUGAAAGAGAGAAGUGAACCAGAGAAACACACGUUGUGGGAUAUUACCUGGUA [U7A U58G] here?
A: 0.775

Q: Which self-cleavage does the source give for GUCCUCAUUCACGUGCGCGUGAAAGAGAGAAGUGAACCAGAGAAACACACGUUGUGGCAUAUUACCUGGUA [U7A U58C] here?
A: 1.02

Q: For GUCCUCCUUCACGUGCGCGUGAAAGAGAGGAGUGAACCAGAGAAACACACGUUGUGGUAUAUUACCUGGUA [U7C A30G], which self-cleavage is on record?
A: 0.0858

Q: With GUCCUCCUUCACGUGCGCGUGAAAGAGAGAAGUGAACCGGAGAAACACACGUUGUGGUAUAUUACCUGGUA [U7C A39G] as the variant, how does the self-cleavage read?
A: 0.263

Q: With GUCCUCCUUCACGUGCGCGUGAAAGAGAGAAGUGAACCCGAGAAACACACGUUGUGGUAUAUUACCUGGUA [U7C A39C] as the variant, how does the self-cleavage read?
A: 0.583

Q: For GUCCUCAUUCACGUGCGCGUGAAAGAGAAAAGUGAACCAGAGAAACACACGUUGUGGUAUAUUACCUGGUA [U7A G29A], which self-cleavage is on record?
A: 0.099

Q: For GUCCUCAUUCACGUGCGCGUGAAAGAGAUAAGUGAACCAGAGAAACACACGUUGUGGUAUAUUACCUGGUA [U7A G29U], which self-cleavage is on record?
A: 0.178

Q: With GUCCUCCUUCACGUGCGCGUGACAGAGAGAAGUGAACCAGAGAAACACACGUUGUGGUAUAUUACCUGGUA [U7C A23C] as the variant, how does the self-cleavage read?
A: 0.455

Q: Which self-cleavage does the source give for GUCCUCAUUCACGUGCGCGUGAAAGAGAGAAGUGAACCAGAGAAACACACGUUUUGGUAUAUUACCUGGUA [U7A G54U] here?
A: 0.589

Q: Which self-cleavage does the source give for GUCCUCAUUCACGUGCGCGUGAAAGAGAGAAGUGAACCAGAGAAACACACGUUGAGGUAUAUUACCUGGUA [U7A U55A] here?
A: 0.152

Q: Which self-cleavage does the source give for GUCCUCAUUCACGUGCGCGUGAAAGAGAGAAGUGAACCAGAGAAACACACGUUGGGGUAUAUUACCUGGUA [U7A U55G] here?
A: 0.205

Q: Which self-cleavage does the source give for GUCCUCAUUCACGUGCGCGUGAAAGAGAGAAGUGAACCAGAGAAACACACGUUGCGGUAUAUUACCUGGUA [U7A U55C] here?
A: 0.175

Q: For GUCCUCCUUCACGUGCGCGUGAAAGAGAGAAGUGCACCAGAGAAACACACGUUGUGGUAUAUUACCUGGUA [U7C A35C], which self-cleavage is on record?
A: 0.612

Q: Which self-cleavage does the source give for GUCCUCAUUCACGUGCGCGUGAAAGAGAGAAGUGAACCACAGAAACACACGUUGUGGUAUAUUACCUGGUA [U7A G40C] here?
A: 0.166

Q: Which self-cleavage does the source give for GUCCUCAUUCACGUGCGCGUGAAAGAGAGAAGUGAACCAUAGAAACACACGUUGUGGUAUAUUACCUGGUA [U7A G40U] here?
A: 0.18

Q: With GUCCUCAUUCACGUGCGCGUGAAAGAGAGAAGUGAACCAGAGAAACACACGUUGUGGUAUAUUACCUUGUA [U7A G68U] as the variant, how does the self-cleavage read?
A: 0.238

Q: For GUCCUCAUUCACGUGCGCGUGAAACAGAGAAGUGAACCAGAGAAACACACGUUGUGGUAUAUUACCUGGUA [U7A G25C], which self-cleavage is on record?
A: 0.402

Q: With GUCCUCAUUCACGUGCGCGUGAAAGAGAGAAGCGAACCAGAGAAACACACGUUGUGGUAUAUUACCUGGUA [U7A U33C] as the variant, how does the self-cleavage read?
A: 0.151
